The record followed here is US20140248295A1 (ROCKEFELLER UNIVERSITY, published 2014).

Numbering of substitutions follows the chain as printed.

Sequences and labels used below:
B1: Ibalizumab light chain mutant LM30E (antibody, human IgG1, kappa, V domains shown)
VH: QVQLQQSGPEVVKPGASVKMSCKASGYTFTSYVIHWVRQKPGQGLDWIGYINPYNDGTDYDEKFKGKATLTSDTSTSTAYMELSSLRSEDTAVYYCAREKDNYATGAWFAYWGQGTLVTVSS
VL: DIVMTQSPDSLAVSLGERVTMNCKSSQSLLYSTNNATYLAWYQQKPGQSPKLLIYWASTRESGVPDRFSGSGSGTDFTLTISSVQAEDVAVYYCQQYYSYRTFGGGTKLEIKR
B2: Ibalizumab light chain mutant LM76 (antibody, human IgG1, kappa, V domains shown)
VH: B1 VH
VL: B1 VL with N35Q, A36K, T37N, S82N, S83A, V84T
B3: Ibalizumab light chain mutant LM60 (antibody, human IgG1, kappa, V domains shown)
VH: B1 VH
VL: B1 VL with N35Q, A36K, T37N, D66N, R67A, F68T
B4: Ibalizumab light chain mutant LM52 (antibody, human IgG1, kappa, V domains shown)
VH: B1 VH
VL: B1 VL with N35Q, A36K, T37N, S58N, T59S, R60T
notes: also called iMab-LM52; Ibalizumab LM52
B5: Ibalizumab light chain mutant LM65 (antibody, human IgG1, kappa, V domains shown)
VH: B1 VH
VL: B1 VL with N35Q, A36K, T37N, S71N, G72A, S73T
B6: Ibalizumab light chain mutant LM67 (antibody, human IgG1, kappa, V domains shown)
VH: B1 VH
VL: B1 VL with N35Q, A36K, T37N, S73N, G74A
B7: Ibalizumab light chain mutant LM53 (antibody, human IgG1, kappa, V domains shown)
VH: B1 VH
VL: B1 VL with N35Q, A36K, T37N, T59N, R60A, E61T

The experiment deals with T1, Recombinant sCD4 comprising the full-length extracellular domain of human CD4 (human, UniProt P01730 26-396).
T1 construct: also called human sCD4 protein; CD4 protein
Description: SPR (Biacore), antibody on CM5 chip by amine coupling, sCD4 as analyte, 25 C. The procedure:
Binding affinity analyses were performed with a T3000 instrument (GE Healthcare, Piscataway, N.J.). […] Briefly, carboxyl groups on the sensor chip surface were activated by injection of a solution containing 0.2 M EDC and 0.05 M NHS. Next, sCD4 protein in 10 mM NaOAc buffer (pH5) was flowed over the chip surface until the desired level of response units was achieved. After unreacted protein was washed out, excess active ester groups on the sensor surface were capped by the injection of 1 M ethanolamine, pH 8.0. Binding experiments were performed at 25° C. in HBS-EP buffer (GE Healthcare). Binding kinetics were measured by passing various concentrations of human sCD4 protein over the chip surface. For kinetics data analysis, the kinetic parameters ([…], association rate constant; koff, dissociation rate constant; KD, equilibrium dissociation constant) were determined by collectively fitting the overlaid sensograms using the BIAevaluation 4.1 software.
CD4 binding affinities of these mutant antibodies were examined using surface plasmon resonance.
For the molecule B1, the Kd stood at 1300 pM.

As for B2, the dissociation constant Kd came to 280 pM. On to B3, for which the Kd is 190 pM. For the molecule B4, the Kd was found to be 350 pM.

As to B5, the Kd amounted to 1500 pM.

For B6, the Kd is 800 pM. For B7, the dissociation constant (Kd) was found to be 530 pM.

One may read the Kd as the equilibrium constant for the complex coming apart.
